Measurements published in PMC9675739, “Structural and functional asymmetry of RING trimerization controls priming and extension events in TRIM5α autoubiquitylation” (Nature Communications, 2022).

Target: the molecule itself
Assay: AUC; sedimentation equilibrium at different protein concentrations and rotor speeds, 20 °C, global fit to a monomer-dimer self-association model; dimer to monomers

B1: R1-WT, isolated RING domain of rhesus TRIM5α (domain or fragment, rhesus monkey, UniProt Q0PF16 2-90, looked up)
chain: ASGILLNVKEEVTCPICLELLTEPLSLHCGHSFCQACITANHKKSMLYKEGERSCPVCRISYQPENIQPNRHVANIVEKLREVKLSPEE
notes: TRIM5α RING domain, rhesus monkey, residues 2-90 (methods); the results give residues 2-89; Tags removed by TEV protease; 15N-labelled for NMR; also called RING monomer; isolated RING monomer; source: bacteria, purified (Ni-NTA, Superdex 75); not shown: His6, N-terminal, cleaved; GB1, N-terminal, cleaved
Kd: 63 ± 28 µM
